Measurements from publication doi:10.1101/2024.02.23.581399 (bioRxiv, 2024).
Blank lines part the entries; values can stand above or below the binder they belong to. Non-standard residues stand in square brackets, D forms with d. No end group written: not given here. pT = C[C@@H](OP(=O)(O)O)[C@H](N)C(=O)O; pS = N[C@@H](COP(=O)(O)O)C(=O)O

Target: T1, PLK1PBD (human, UniProt P53350 370-603)
T1 construct: PLK1, human, residues 370-603 (Polo-box domain); Labelled PLK1PBD without a tag in the amylose pull-downs and the crystal structures; also called PLK1_(370-603); Polo-Box Domain; source: E. coli BL21 Gold (DE3), purified (HisTrap, SEC)
T1 sequence (P53350 370-603): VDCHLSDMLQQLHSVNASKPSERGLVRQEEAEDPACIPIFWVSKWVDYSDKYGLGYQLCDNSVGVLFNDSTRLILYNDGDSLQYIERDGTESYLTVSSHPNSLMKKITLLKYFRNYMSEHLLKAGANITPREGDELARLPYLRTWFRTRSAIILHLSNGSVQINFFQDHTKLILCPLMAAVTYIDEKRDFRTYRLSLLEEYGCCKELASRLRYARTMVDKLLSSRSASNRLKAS
Test: crystal structure; PLK1PBD mixed with two times molar excess of phospho-peptide, sitting drop, 18°C
Conditions: both partners purified

binding result: binds
B1: Mis18α_(49-55) phospho-peptide (ASMWSSphM) (peptide)
peptide: ASMWS[pS]M
notes: also called S54ph peptide; Mis18α_(S54ph); source: synthetic peptide (Peptide Synthetics)

binding result: binds
B2: Mis18BP1_(72-82) phospho-peptide (KNIFQSTphMLTE) (peptide)
peptide: KNIFQS[pT]MLTE
notes: Mis18BP1, human, residues 72-82; also called T78ph peptide; Mis18BP1_(T78ph); source: synthetic peptide (Peptide Synthetics)
